The record followed here is patent publication US12397036B2, “Peptide exchange protein” (Cambridge Enterprise Limited, priority 2018, dated 2025).

For the test, the system named is surface MHC class I molecules (HLA-A*68:02) on HeLaM cells. Briefly: Binding of exogenous soluble TAPBPR to cells (PeTe-4 staining). Details: species or system human. The settings on record: cells lacking classical MHC class I expression. On the procedure: (g) Dose response curves of IFN-γ treated HeLaM and HeLaM-HLA-ABC^KO cells treated −/+100 nM TAPBPR with increasing concentrations of ETVSK*QSNV for 15 min at 37° C. Line graphs show MFI−/+s.e.m from three independent experiments. […] (h) Histograms of the typical fluorescent peptide binding observed using flow cytometry. (i) Bar graphs showing the MFI of fluorescent peptide binding to HeLaM HLA-ABC^KO+A2−/+s.e.m from two independent experiments with duplicates. ***P≤0.001, ****P≤0.0001, n/s not significant, using unpaired two-tailed t-test.
Following trypsinisation, cells were washed in 1% bovine serum albumin (BSA), dissolved in 1×PBS at 4° C. and then stained for 30 min at 4° C. in 1% BSA containing one of the following antibodies: W6/32, pete4, pasta-1, anti-HLA-A68-reactive mAb, BB7.2 or with an isotype control antibody. After washing the cells to remove excess unbound antibody, the primary antibodies bound to the cells were detected by incubation at 4° C. for 25 min with either goat anti-mouse Alexa-Fluor 647 IgG (Invitrogen Molecular Probes, Thermo Fisher Scientific) or with Alexa-Fluor 647-conjugated streptavidin (Invitrogen Molecular Probes, Thermo Fisher […]

B1: soluble TAPBPR^WT: secreted His-tagged luminal domain of human TAPBPR, lacking transmembrane domain and cytoplasmic tail; SEQ ID NO: 2 (protein)
chain: KPHPAEGQWRAVDVVLDCFLVKDGAHRGALASSEDRARASLVLKQVPVLDDGSLEDFTDFQGGTLAQDDPPIIFEASVDLVQIPQAEALLHADCSGKEVTCEISRYFLQMTETTVKTAAWFMANVQVSGGGPSISLVMKTPRVAKNEVLWHPTLNLPLSPQGTVRTAVEFQVMTQTQSLSFLLGSSASLDCGFSMAPGLDLISVEWRLQHKGRGQLVYSWTAGQGQAVRKGATLEPAQLGMARDASLTLPGLTIQDEGTYICQITTSLYRAQQIIQLNIQASPKVRLSLANEALLPTLICDIAGYYPLDVVVTWTREELGGSPAQVSGASFSSLRQSVAGTYSISSSLTAEPGSAGATYTCQVTHISLEEPLGASTQVVPPERR
modifications: His tag; TAPBPR luminal domain (mature sequence without 21 aa leader sequence)
For B1, the “binding of exogenous TAPBPR to HeLaM-HLA-ABC^KO cells” value is on record as “could no longer bind”.
